Results reported in US7514534.

T1: MMP-26 (human)
T1 sequence: ASDF


What follows are binders tested against T1, MMP-26 (human) (assay: cell-based or functional assay).

Binder | % Inhibition of JEG-3 cell invasion, 5 µg/ml (first test) [%] | % Inhibition of JEG-3 cell invasion, 25 µg/ml (first test) [%] | % Inhibition of JEG-3 cell invasion, 1 µg/ml (further test) [%] | % Inhibition of JEG-3 cell invasion, 5 µg/ml (further test) [%] | % Inhibition of JEG-3 cell invasion, 25 µg/ml (further test) [%] | % Inhibition of JEG-3 cell invasion, 50 µg/ml (further test) [%]
H6-orig (antibody, human IgG4, V domains shown) VH: EVQLLESGGGLVQPGGSLRLSCAASGFTFSQYWMNWVRQAPGKGLEWVSGIGPSGGITYYADSVKGRFTISRDNSKNTLYLQMNSLRAEDTAVYYCARGEEDGYNSDYWGQGTLVTVSS VL: QSELTQPPSASGSPGQSVTISCTGTSSDVGAYNYVSWYQQHPGKAPKLIIYEVNKRPSGVPDRFSASKSGNTASLTVSGLQAEDEADYYCNSYAGSNSLIFGGGTKLTVLG | 24 | 50 | 49 | 52 | 57 | 39
A04 (antibody, human IgG4, V domains shown) VH: EVQLLESGGGLVQPGGSLRLSCAASGFTFSEYNMAWVRQAPGKGLEWVSRIGSSGGKTKYADSVKGRFTISRDNSKNTLYLQMNSLRAEDTAVYYCARDEAPDYGDDAEAFDIWGQGTMVTVSS VL: QSALTQPPSASGTPGQRVTISCSGGYSNMGSNYAHWYQQVPGTAPKLLIYNNNQRPSGVPDRFSGSKSGTSASLAISGLRSEDEADYYCAAWDENLSGPVFGTGTKVTVLG | 6 | 27 |  |  |  | 
C05 (antibody, human IgG4, V domains shown) VH: EVQLLESGGGLVQPGGSLRLSCAASGFTFSSYQMDWVRQAPGKGLEWVSRIVPSGGDTTYADSVKGRFTISRDNSKNTLYLQMNSLRAEDTAVYYCARHVYYDSSDYFPNPFDYWGQGTLVTVSS VL: QSELTQPPSVSGTPGQRVTISCSGSSSNIGSEYVYWFQQLPGTAPRLLIYRNDQRPSGVPDRFSGSKSGTSASLAISGLRSEDETDYYCTTWDDSLSGPVFGGGTKLTVLG | 16 | 32 |  |  |  | 
C01 (antibody, human IgG4, V domains shown) VH: EVQLLESGGGLVQPGGSLRLSCAASGFTFSNYGMSWVRQAPGKGLEWVSVIGPSGGITMYADSVKGRFTISRDNSKNTLYLQMNSLRAEDTAVYYCATGSSSGWYPNFDYWGQGTLVTVSS VL: DIQMTQSPSTLSASVGDRVTITCRASQSIGNWLAWYQQKPGEAPHLLIYQASSLEGGVPSRFSGSGSGTKFTLNISSLQPDDFATYYCQQYNSYSYTFGQGTKLDIKR | 43 | 34 | -2 | 16 | 21 | 42
B04 (antibody, human IgG4, V domains shown) VH: EVQLLESGGGLVQPGGSLRLSCAASGFTFSFYWMMWVRQAPGKGLEWVSGISSSGGFTKYADSVKGRFTISRDNSKNTLYLQMNSLRAEDTAVYYCARETSRRAFDIWGQGTMVTVSS VL: DIQMTQSPSSVSASVGDRVTITCRASQGISKSLAWYQQKPGKAPKLLVYGAFSLESGVPSRFSGTGAGTDFILTISRLQPEDFATYYCQQANSFPLTFGGGTKVEIKR | 36 | 14 |  |  |  | 
A01 (antibody, human IgG4, V domains shown) VH: EVQLLESGGGLVQPGGSLRLSCAASGFTFSAYNMFWVRQAPGKGLEWVSGIGSSGGIAPYADSVKGRFTISRDNSKNTLYLQMNSLRAEDTAVYYCARAAYEVENWFDPWGQGTLVTVSS VL: DIQMTQSPGTLSLSPGERATLSCRASQIVRSTYLAWYQQKPGQAPRLLIYGTSSRATGVPDRFSGSGSGTDFTLTISGLEPEDFALYYCQRYGDSPPITFGQGTRLEITR | 19 | 51 | 30 | 47 | 54 | 70
B06 (antibody, human IgG4, V domains shown) VH: EVQLLESGGGLVQPGGSLRLSCAASGFTFSQYFMKWVRQAPGKGLEWVSSISPSGGLTQYADSVKGRFTISRDNSKNTLYLQMNSLRAEDTAVYYCARGGIEAPGSPSDYWGQGTLVTVSS VL: DIQMTQSPSFLSASVGDRVTITCRASQGISSYLAWYQQKPGKAPKLLIYAASTLQSGVPSRFSGSGSGTDFTLTISSLEPEDFATYYCQESYSTPFFTFGPGTKVDIRR | 34 | 30 |  |  |  | 
C04 (antibody, human IgG4, V domains shown) VH: EVQLLESGGGLVQPGGSLRLSCAASGFTFSMYFMVWVRQAPGKGLEWVSWIGSSGGETPYADSVKGRFTISRDNSKNTLYLQMNSLRAEDTAVYYCARGYSSGWYVMGDYWGQGTLVTVSS VL: QSALTQPPSASGTPGQRVTISCSGTSSNIGSHYVFWYQQLPGTAPKLLIHRNDERPSGVPDRFSGSKSGTSASLAISGLQSEDEADYYCATWDDNLNGPVFGGGTKLT | 35 | 36 | 1 | 11 | 18 | 32
A1-orig (antibody, human IgG4, V domains shown) VH: EVQLLESGGGLVQPGGSLRLSCAASGFTFSYYRMSWVRQAPGKGLEWVSSIGPSGGDTLYADSVKGRFTISRDNSKNTLYLQMNSLRAEDTAVYYCARSFSSGPYYFDYWGQGTLVTVSS VL: QSVLTQPPSASGTPGQRVIISCSGSSSNIGSHYVHWYQQVPGTAPKLLIYRNGQRPSGVPDRFSGFKSGTSASLAISGLRSEDEANYYCATWDDSVLFGGGTTLTVLG | 40 | 66 | 53 | 58 | 64 | 74

Results, then the binder that gave them:

% Inhibition of JEG-3 cell invasion, 5 µg/ml (first test) [%] | % Inhibition of JEG-3 cell invasion, 25 µg/ml (first test) [%] | % Inhibition of JEG-3 cell invasion, 1 µg/ml (further test) [%] | % Inhibition of JEG-3 cell invasion, 5 µg/ml (further test) [%] | % Inhibition of JEG-3 cell invasion, 25 µg/ml (further test) [%] | % Inhibition of JEG-3 cell invasion, 50 µg/ml (further test) [%] | Binder
28 | 29 |  |  |  |  | C11 (antibody, human IgG4, V domains shown) VH: EVQLLESGGGLVQPGGSLRLSCAASGFTFSEYPMWWVRQAPGKGLEWVSWIYPSGGNTDYADSVKGRFTISRDNSKNTLYLQMNSLRAEDTAVYYCAIPYCSSSSCPLHWGQGTLVTVSS VL: QSELTQPPSASGSPGQSVTISCTGTSSDVGGYNYVSWYQQHPDKAPKLLIYEVTQRPSGVPDRFSGSRSGNTASLTVSGLQAEDEADYYCSSYAGRNNLYVFGPGTKVTVLG
28 | 56 | 51 | 54 | 59 | 73 | A11 (antibody, human IgG4, V domains shown) VH: EVQLLESGGGLVQPGGSLRLSCAASGFTFSWYTMMWVRQAPGKGLEWVSRISPSGGHTLYADSVKGRFTISRDNSZNTLYLQMNSLRAEDTAVYYCARDTWDDYYDSSGYYNDFDYWGQGTLVTVSS VL: QSALTQPPSVSLAPGQTARITCGGNNIGTKSVHWYQQKPGQAPVLVVYDDSDRPSGIPERFSGSNSGNTATLTISRVEAGDEADYYCQVWDSGSDHQVFGGGTKLTVLG
49 | 38 | 36 | 35 | 49 | 27 | C12 (antibody, V domains shown) VH: EVQLLESGGGLVQPGGSLRLSCAASGFTFSAYNMMWVRQAPGKGLEWVSRIYPSGGYTLYADSVKGRFTISRDNSKNTLYLQMNSLRAEDTAVYYCARQKLMIRAVRPFDYWGQGTLVTVSS VL: QSELTQPPSVSVSPAQTASITCSGDKLGDKYACWYQQKPGQSPVLVIYEDTKRPSGIPERFSGSNSGNTATLTISGTQVMDEADYYCQVWDSSTAVFGGGTKLTVLG
41 | 52 | 42 | 55 | 70 | 35 | D6-orig (antibody, human IgG4, V domains shown) VH: EVQLLESGGGLVQPGGSLRLSCAASGFTFSMYSMRWVRQAPGKGLEWVSSIYPSGGSTEYADSVKGRFTISRDNSKNTLYLQMNSLRAEDTAVYYCAREGGENDYWGQGTLVTVSS VL: DIQMTQSPLSLSASVGDRVAITCRASQSIDTYLNWYQQKPGKAPKLLIYAASKLEDGVPSRFSGSGTGTDFTLTIRSLQPEDFASYFCQQSYSSPGITFGPGTKVEIKR
48 | 26 | 6 | 5 | 11 | 22 | B10 (antibody, human IgG4, V domains shown) VH: EVQLLESGGGLVQPGGSLRLSCAASGFTFSSYAMMWVRQAPGKGLEWVSWIVPSGGTTFYADSVKGRFTISRDNSKNTLYLQMNSLRAEDTAVYYCARGLYRWGQGTLVTVSSASTKGPSVFP VL: DIQMTQSPSSLSASVGDRVTIACRTSQNVNRYLNWYQHKLGQAPKLLIYGATILQSGVPSRFRGSGSGTDFILTITNLQPEDFAVYYCQQTYSPPLTFGQGTKAEFKGTVAAPSV
45 | 49 | 34 | 42 | 49 | 62 | C08 (antibody, human IgG4, V domains shown) VH: EVQLLESGGGLVQPGGSLRLSCAASGFTFSYYEMMWVRQAPGKGLEWVSSISPSGGPTMYADSVKGRFTISRDNSKNTLYLQMNSLRAEDTGVYYCARKMGRVGYCSSTSCYRDDYYGMDVWGQGTTVTVSS VL: DIQMTQSPPSLSALVGDRVTITCRASQSISRYVNWYQQKPGKAPKVLIYAASIVENGVPSRFSGSGSGTDFSLTISSLQPEDFATYYCQQTYSTPLTFGGGTKLAIKR
